Data from patent publication US20260209293A1 (Novo Nordisk, published 2026).
*1 amine or outer side, *2 acyl side, *3 side chain or, on linkers, in order; H or OH if unused. Side-chain parts run from the residue outwards. The star is where a group is joined. C20 diacid = O=C(O)CCCCCCCCCCCCCCCCCCC(=O)*; C18 diacid = O=C(O)CCCCCCCCCCCCCCCCC(=O)*; γGlu = O=C(O)[C@H](CCC(=O)[*:2])N[*:1]

T1: human amylin-3(a) receptor (human, UniProt P30988 25-474; O60896 24-148)
T1 sequence (looked up) 1: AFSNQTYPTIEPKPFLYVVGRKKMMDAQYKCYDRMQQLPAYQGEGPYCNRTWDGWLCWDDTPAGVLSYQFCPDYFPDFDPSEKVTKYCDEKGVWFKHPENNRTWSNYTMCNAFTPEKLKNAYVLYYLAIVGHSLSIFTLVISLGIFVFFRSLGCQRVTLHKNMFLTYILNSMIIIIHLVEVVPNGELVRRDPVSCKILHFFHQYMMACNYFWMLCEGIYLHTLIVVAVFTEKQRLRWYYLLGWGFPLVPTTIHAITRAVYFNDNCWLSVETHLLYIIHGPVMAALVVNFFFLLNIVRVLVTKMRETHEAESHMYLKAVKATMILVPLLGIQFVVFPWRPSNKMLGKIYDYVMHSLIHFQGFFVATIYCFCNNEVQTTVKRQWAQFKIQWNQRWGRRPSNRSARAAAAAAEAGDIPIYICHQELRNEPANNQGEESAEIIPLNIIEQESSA
T1 sequence (looked up) 2: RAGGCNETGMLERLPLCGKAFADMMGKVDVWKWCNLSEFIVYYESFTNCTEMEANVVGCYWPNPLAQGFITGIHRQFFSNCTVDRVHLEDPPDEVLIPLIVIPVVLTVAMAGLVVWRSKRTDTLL

T2: human calcitonin receptor (a) (human, UniProt P30988 25-474)
T2 sequence (looked up): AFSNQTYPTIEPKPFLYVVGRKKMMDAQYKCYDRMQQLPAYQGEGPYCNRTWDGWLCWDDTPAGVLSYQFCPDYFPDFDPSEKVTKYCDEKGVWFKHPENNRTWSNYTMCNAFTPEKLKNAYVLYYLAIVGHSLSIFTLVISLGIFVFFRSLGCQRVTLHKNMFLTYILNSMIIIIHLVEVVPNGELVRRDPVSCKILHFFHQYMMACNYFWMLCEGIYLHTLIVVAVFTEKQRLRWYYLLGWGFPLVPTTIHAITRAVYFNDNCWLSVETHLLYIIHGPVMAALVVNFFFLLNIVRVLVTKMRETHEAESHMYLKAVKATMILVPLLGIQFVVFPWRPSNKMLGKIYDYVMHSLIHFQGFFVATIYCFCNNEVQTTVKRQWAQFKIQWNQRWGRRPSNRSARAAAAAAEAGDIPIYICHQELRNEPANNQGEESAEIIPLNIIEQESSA

B1: N^1-[(4S)-4-carboxy-4-(17-carboxyheptadecanoylamino)butanoyl]-[Ala1,Ser2,His3,Leu4,Ser5,Ala7,Gln8,Ala10,Glu14,His17,Asp21,Pro22,Pro27,Asp31, Pro34,Asp35]-human … (peptide)
peptide: {C18 diacid-γGlu}-ASHLSTAQTARLAEFLHHSSDPFGAIPSSTDVGPDTY-NH2
SMILES: CC[C@H](C)[C@H](NC(=O)[C@H](C)NC(=O)CNC(=O)[C@H](Cc1ccccc1)NC(=O)[C@@H]1CCCN1C(=O)[C@H](CC(=O)O)NC(=O)[C@H](CO)NC(=O)[C@H](CO)NC(=O)[C@H](Cc1c[nH]cn1)NC(=O)[C@H](Cc1c[nH]cn1)NC(=O)[C@H](CC(C)C)NC(=O)[C@H](Cc1ccccc1)NC(=O)[C@H](CCC(=O)O)NC(=O)[C@H](C)NC(=O)[C@H](CC(C)C)NC(=O)[C@H](CCCNC(=N)N)NC(=O)[C@H](C)NC(=O)[C@@H](NC(=O)[C@H](CCC(N)=O)NC(=O)[C@H](C)NC(=O)[C@@H](NC(=O)[C@H](CO)NC(=O)[C@H](CC(C)C)NC(=O)[C@H](Cc1c[nH]cn1)NC(=O)[C@H](CO)NC(=O)[C@H](C)NC(=O)CC[C@H](NC(=O)CCCCCCCCCCCCCCCCC(=O)O)C(=O)O)[C@@H](C)O)[C@@H](C)O)C(=O)N1CCC[C@H]1C(=O)N[C@@H](CO)C(=O)N[C@@H](CO)C(=O)N[C@H](C(=O)N[C@@H](CC(=O)O)C(=O)N[C@H](C(=O)NCC(=O)N1CCC[C@H]1C(=O)N[C@@H](CC(=O)O)C(=O)N[C@H](C(=O)N[C@@H](Cc1ccc(O)cc1)C(N)=O)[C@@H](C)O)C(C)C)[C@@H](C)O
B2: N^1-acetyl,N{Epsilon-25}-[(4S)-4-carboxy-4-(17-carboxyheptadecanoylamino)butanoyl]-[Ala1,Ser2,His3,Leu4,Ser5,Ala7,Gln8,Ala10,Glu14,His17,Asp21,Pro22,Lys25,Pro27 … (peptide)
peptide: Ac-ASHLSTAQTARLAEFLHHSSDPFGK([γGlu-C18 diacid])IPSSTDVGPDTP-NH2
SMILES: CC[C@H](C)[C@H](NC(=O)[C@H](CCCCNC(=O)CC[C@H](NC(=O)CCCCCCCCCCCCCCCCC(=O)O)C(=O)O)NC(=O)CNC(=O)[C@H](Cc1ccccc1)NC(=O)[C@@H]1CCCN1C(=O)[C@H](CC(=O)O)NC(=O)[C@H](CO)NC(=O)[C@H](CO)NC(=O)[C@H](Cc1c[nH]cn1)NC(=O)[C@H](Cc1c[nH]cn1)NC(=O)[C@H](CC(C)C)NC(=O)[C@H](Cc1ccccc1)NC(=O)[C@H](CCC(=O)O)NC(=O)[C@H](C)NC(=O)[C@H](CC(C)C)NC(=O)[C@H](CCCNC(=N)N)NC(=O)[C@H](C)NC(=O)[C@@H](NC(=O)[C@H](CCC(N)=O)NC(=O)[C@H](C)NC(=O)[C@@H](NC(=O)[C@H](CO)NC(=O)[C@H](CC(C)C)NC(=O)[C@H](Cc1c[nH]cn1)NC(=O)[C@H](CO)NC(=O)[C@H](C)NC(C)=O)[C@@H](C)O)[C@@H](C)O)C(=O)N1CCC[C@H]1C(=O)N[C@@H](CO)C(=O)N[C@@H](CO)C(=O)N[C@H](C(=O)N[C@@H](CC(=O)O)C(=O)N[C@H](C(=O)NCC(=O)N1CCC[C@H]1C(=O)N[C@@H](CC(=O)O)C(=O)N[C@H](C(=O)N1CCC[C@H]1C(N)=O)[C@@H](C)O)C(C)C)[C@@H](C)O
B3: N^1-[(4S)-4-carboxy-4-(19-carboxynonadecanoylamino)butanoyl]-[Ala1,Ser2,His3,Leu4,Ser5,Ala7,Gln8,Ala10,Glu14,His17,Asp21,Pro22,Pro27,Asp31, … (peptide)
peptide: {C20 diacid-γGlu}-ASHLSTAQTARLAEFLHHSSDPFGAIPSSTDVGPDTP-NH2
SMILES: CC[C@H](C)[C@H](NC(=O)[C@H](C)NC(=O)CNC(=O)[C@H](Cc1ccccc1)NC(=O)[C@@H]1CCCN1C(=O)[C@H](CC(=O)O)NC(=O)[C@H](CO)NC(=O)[C@H](CO)NC(=O)[C@H](Cc1c[nH]cn1)NC(=O)[C@H](Cc1c[nH]cn1)NC(=O)[C@H](CC(C)C)NC(=O)[C@H](Cc1ccccc1)NC(=O)[C@H](CCC(=O)O)NC(=O)[C@H](C)NC(=O)[C@H](CC(C)C)NC(=O)[C@H](CCCNC(=N)N)NC(=O)[C@H](C)NC(=O)[C@@H](NC(=O)[C@H](CCC(N)=O)NC(=O)[C@H](C)NC(=O)[C@@H](NC(=O)[C@H](CO)NC(=O)[C@H](CC(C)C)NC(=O)[C@H](Cc1c[nH]cn1)NC(=O)[C@H](CO)NC(=O)[C@H](C)NC(=O)CC[C@H](NC(=O)CCCCCCCCCCCCCCCCCCC(=O)O)C(=O)O)[C@@H](C)O)[C@@H](C)O)C(=O)N1CCC[C@H]1C(=O)N[C@@H](CO)C(=O)N[C@@H](CO)C(=O)N[C@H](C(=O)N[C@@H](CC(=O)O)C(=O)N[C@H](C(=O)NCC(=O)N1CCC[C@H]1C(=O)N[C@@H](CC(=O)O)C(=O)N[C@H](C(=O)N1CCC[C@H]1C(N)=O)[C@@H](C)O)C(C)C)[C@@H](C)O
B4: N^1-[(4S)-4-carboxy-4-(17-carboxyheptadecanoylamino)butanoyl]-[Ala1,Ser2,His3,Leu4,Ser5,Ala7,Gln8,Ala10,Glu14,His17,Asp21,Pro25,Pro28,Pro29,Asp31]-human amylin (peptide)
peptide: {C18 diacid-γGlu}-ASHLSTAQTARLAEFLHHSSDNFGPILPPTDVGSNTY-NH2
SMILES: CC[C@H](C)[C@H](NC(=O)[C@@H]1CCCN1C(=O)CNC(=O)[C@H](Cc1ccccc1)NC(=O)[C@H](CC(N)=O)NC(=O)[C@H](CC(=O)O)NC(=O)[C@H](CO)NC(=O)[C@H](CO)NC(=O)[C@H](Cc1c[nH]cn1)NC(=O)[C@H](Cc1c[nH]cn1)NC(=O)[C@H](CC(C)C)NC(=O)[C@H](Cc1ccccc1)NC(=O)[C@H](CCC(=O)O)NC(=O)[C@H](C)NC(=O)[C@H](CC(C)C)NC(=O)[C@H](CCCNC(=N)N)NC(=O)[C@H](C)NC(=O)[C@@H](NC(=O)[C@H](CCC(N)=O)NC(=O)[C@H](C)NC(=O)[C@@H](NC(=O)[C@H](CO)NC(=O)[C@H](CC(C)C)NC(=O)[C@H](Cc1c[nH]cn1)NC(=O)[C@H](CO)NC(=O)[C@H](C)NC(=O)CC[C@H](NC(=O)CCCCCCCCCCCCCCCCC(=O)O)C(=O)O)[C@@H](C)O)[C@@H](C)O)C(=O)N[C@@H](CC(C)C)C(=O)N1CCC[C@H]1C(=O)N1CCC[C@H]1C(=O)N[C@H](C(=O)N[C@@H](CC(=O)O)C(=O)N[C@H](C(=O)NCC(=O)N[C@@H](CO)C(=O)N[C@@H](CC(N)=O)C(=O)N[C@H](C(=O)N[C@@H](Cc1ccc(O)cc1)C(N)=O)[C@@H](C)O)C(C)C)[C@@H](C)O
B5: N^1-acetyl,N{Epsilon-25}-[(4S)-4-carboxy-4-(17-carboxyheptadecanoylamino)butanoyl]-[Ala1,Ser2,His3,Leu4,Ser5,Ala7,Gln8,Ala10,Glu14,His17,Asp21,Lys25,Pro28,Pro29 … (peptide)
peptide: Ac-ASHLSTAQTARLAEFLHHSSDNFGK([γGlu-C18 diacid])ILPPTDVGSNTP-NH2
SMILES: CC[C@H](C)[C@H](NC(=O)[C@H](CCCCNC(=O)CC[C@H](NC(=O)CCCCCCCCCCCCCCCCC(=O)O)C(=O)O)NC(=O)CNC(=O)[C@H](Cc1ccccc1)NC(=O)[C@H](CC(N)=O)NC(=O)[C@H](CC(=O)O)NC(=O)[C@H](CO)NC(=O)[C@H](CO)NC(=O)[C@H](Cc1c[nH]cn1)NC(=O)[C@H](Cc1c[nH]cn1)NC(=O)[C@H](CC(C)C)NC(=O)[C@H](Cc1ccccc1)NC(=O)[C@H](CCC(=O)O)NC(=O)[C@H](C)NC(=O)[C@H](CC(C)C)NC(=O)[C@H](CCCNC(=N)N)NC(=O)[C@H](C)NC(=O)[C@@H](NC(=O)[C@H](CCC(N)=O)NC(=O)[C@H](C)NC(=O)[C@@H](NC(=O)[C@H](CO)NC(=O)[C@H](CC(C)C)NC(=O)[C@H](Cc1c[nH]cn1)NC(=O)[C@H](CO)NC(=O)[C@H](C)NC(C)=O)[C@@H](C)O)[C@@H](C)O)C(=O)N[C@@H](CC(C)C)C(=O)N1CCC[C@H]1C(=O)N1CCC[C@H]1C(=O)N[C@H](C(=O)N[C@@H](CC(=O)O)C(=O)N[C@H](C(=O)NCC(=O)N[C@@H](CO)C(=O)N[C@@H](CC(N)=O)C(=O)N[C@H](C(=O)N1CCC[C@H]1C(N)=O)[C@@H](C)O)C(C)C)[C@@H](C)O

Columns and labels:
[1] = molecular target: T1, human amylin-3(a) receptor; experiment: cell-based or functional assay
[2] = molecular target: T2, human calcitonin receptor (a); experiment: cell-based or functional assay

Binder	hAmyR3 potency, EC50 (pM); CRE-luciferase reporter in BHK cells [1] [pM]	hCalcR potency, EC50 (pM); CRE-luciferase reporter in BHK cells [2] [pM]
B1	1.68	2.16
B2	1.38	1.29
B3	1.05	1.41
B4	1.97	3.15
B5	1.16	1.16
